Biological target: human EDAR-Fc
Assay: SPR (Biacore); Fab fragment

human EDAR-Fc, sequence (chain, as listed by the source): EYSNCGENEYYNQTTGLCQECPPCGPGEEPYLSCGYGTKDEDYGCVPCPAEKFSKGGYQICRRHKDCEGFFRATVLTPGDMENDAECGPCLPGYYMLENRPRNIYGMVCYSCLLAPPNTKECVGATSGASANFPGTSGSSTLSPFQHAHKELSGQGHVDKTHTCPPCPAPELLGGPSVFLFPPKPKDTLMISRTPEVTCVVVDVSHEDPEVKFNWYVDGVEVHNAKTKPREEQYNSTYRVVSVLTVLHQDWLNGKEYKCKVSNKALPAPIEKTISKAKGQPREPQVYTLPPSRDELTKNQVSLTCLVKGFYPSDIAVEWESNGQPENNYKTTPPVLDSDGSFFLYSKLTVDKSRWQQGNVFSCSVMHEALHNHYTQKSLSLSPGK

Row | Kd | Binder
1 | 1.58 nM | mAbEDAR6 (antibody, V domains shown) VH: EVQLQQSGPELVKPGASVKMSCKASGYSFTGYNMHWVKQSHGKSLEWIGYIDPYNGATSKNQKFKGKATLTVDKSSTTAYIQLNSLTSEDSAVYYCARYYYGDYHWYFDVWGAGTTVTVSS VL: DVVMTQTPLSLPVSLGDQASISCRSSQSLVHSNGNTYLHWYLQQPGQSPKLLIYKVSNRFSGVPDRFSGSGSGTDFTLKISRVEAEDLGVYFCSQHTHVPPTFGAGTKLELKR
2 | 1 nM | mAbEDAR2 (antibody, V domains shown) VH: QVQLQQPGAELVKPGASVKLSCKASGYTFTSYWMQWVKQRPGQGIEWIGEIDPSDSYTYYNQKFKGKATLTIDKSSSTAYMQLSSLTSEDSAVYYCSRKNYYRGMDYWGQGTSVTVSS VL: DVLMTQTPLSLPVSLGDQASISCRSSQNIVQSNGNTYLEWYLQKPGQSPKLLIYKVSNRFSGVPDRFSGSGSGTDFTLKISRVEADDLGVYYCFQVSHVPYTFGGGTKLEIKR
